Test results taken from the domain aggregation screens of Martell et al. (2025).

Assay: soluble fraction after stress (log2 fold change); higher = more stays soluble; pooled small domains, quantitative proteomics
Conditions: stress: pH 4
Summary of the method: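 Following acid stress at pH 4, the amount of each small protein domain still soluble was measured in pooled custom libraries by high-throughput quantitative proteomics. Its fold change, on a log2 scale, is higher when more of the domain stayed soluble. This fold change is taken as a measure of aggregation propensity.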

Sequence	soluble fraction (log2)
HMSALAQDGDLVQLQGAGYKSHILRLKAGEVLQTHRGVIQHDAVIGQPWGARLQSHTGSPFYLFQPGLADL	-0.187
HMTPIELIEKTIELIENERKVQKLQQKELALKADIPFPTYKDFIYKKRASLENILKLFIALRLF	-0.88
HMSEFLTIVRAVYSGLSRRKVAAMHKVSRNTVSLYLRQARDQGWLTLEDLEKLDDLTVSQGVS	-0.918
HMDPPQEVWDLTRSYLDSMNRPVHGHKSPQETYLRQVKSHRLPATALWDYFMAQRFHAVHATSESAA	-0.364
HMETEAGIKAYLSSSMIKGIGPVTAQRIVERFGKRTLYVLDQMPEKLLDISGISEAKLEEILNGYRKS	-0.532
HMSRESNISTGRQLLEAQLPTWGYKKVEDIPSKQMKTALDAFNYKDVESLLQGLGEGSVALTTALRRLMP	-0.926
HMNFRESVLAVFENSKQKYLDFDEIAKRLGLTRGFDRQALASMLNELTRNDEIVFTKRNKYTLPEN	-0.774
HMSARKVTVALHTRDHADRLRRLLKHEGVSADLVAARLSHKLTDHPIEVRVNEDDIPAVLRIIENIEIF	-0.707
HMETGELQQILEDVFSKNIGIVQDKREAAFSILMGMIMAKSRGRADGALVSTLLKKKLTEFLATSDQVR	-0.196
HMGMAQELMESRLTAVFTSGKDQLAVLQRKDGSTLKLGADSKPWRIESFDGRKAVFVSADQQRVERLL	-0.599
HMDAPRFAAGDAVRVAGLVSKPQHNGRAGSVLSYDPVSLRYIVKVDGEDEPLKLKPENVLMPA	0.0764
HMAPQAETLLRQVMALPSKDRAVLYLHYYEGFSTREVGDMLHISQSAVTTRLLRARKKLKEIL	-0.754
HMSDDSYLVALAEAYKNATSWDIRRQVLSIMTGVSSYKEISRYIPGLTQYRLSISNLHRLQYGRAAPVP	-0.217
HMEPMNMYSSIKKVIGVVSGKGGVGKSLVTASLARMMRAKGYHVGIMDADITGPSIPKMYGLHEMA	0.0444
HMSDDLIILGYSMLNNALKAFHIDPDSIKKKHWDKLAQDYHLKNKNQILTDIALGKRVNIMVAHQLTTIMD	-1.32
HMTAPDDFIRAEVTASGKNGMAVAELSKRVRTRFKSFKVRELGYPHLAGYLADVEGVRVYKQGRENWVAK	-0.241
HMSMTVHGALRLLQLPTIADRPYTLKEIREAYREQAQNHHPDAGGSADAMRRLNEAYQFLKERYRQA	-0.0331
HMTKDYVVIYEGLAQTEAVEILGKLQEMGVSAKVDHNDSILVLKDEEDQIRMALATEGYPKS	-0.803
HMLFGKKYLGKVPNDASGRISLWNDIVKHHQELQNIRAIENFTSDNVTVAQGDTKKAVVVTDYVT	-0.152

Sequence	soluble fraction (log2)
HMIVNEQEQTFIKAMRDDDFNTILELKMKGYQPSDNVLKSLQPDISSTTFIAAAKIFQMERMLK	≥ 0.43
HMKVLNVLESEIVRLFKQGQQKDNIRDNIYKTHGQHYNNKKSFNVVFGRKWNSLLEQGFLES	0.241
HMKTILEKDQRLAKYISYLIKRKRLSPEQVIEHLKTDDHGYEKYPKSINTIYAAIDKGLIPSVTRQDM	≥ 0.43
HMYVVLYPGMARDEAVQVMNELQSRGIDYYEKNGNIYVPKTDENSLRMELANLGYPKTTNNYD	-0.188
HMFSDDEINRLKARDSILVNLRDSEKQVWELYTDGKTVQNIANQLNKHKQSISATIINIKNKISRKQNMLK	-0.0225
HMVQIQDIAFSEFLNELEKGNILDVNIKGDLINGNMLDGKKFKTYAPYDPSLVEKLSKQNVTINVEPVN	-0.06
HMIGRRLKVARASAGLSLRELAARMDGVVTPQAIGKYERNEDMPGSRALMALASALGVSEGYLLSD	-0.0156
HMTLSHAINRLRLNANMSQEQFAGLFHVSQQSVQKWESGDSVPELSKLIAIAKHFGISLDALILGN	0.0336
HMNKAYLTVADMKKDKSLKNGDVVRTLGYYGYNDGDGAVYQIKDSHPEDYHIRLDNGLDAEQINY	0.174
HMGNTTEVLVATQDVKANTKIKESMFTTERVDTASLPDNYLSADSAKDVVGYYTYIGFTKGSVISKSNIAT	0.0364
HMPRNEIQRSVLNELVQWIKNNLAKKLTMQALSRFSGYSEWHLFRLFRHYFNMSPMAYIRQQRMQ	-0.359
HMGFVATRSRKFLPFSEARAITRGLGFSNQKDYKEWIKGNGNELLLPFNPWRTYGDSGWKGWKDFLGTDKA	0.0101
HMNNISKKIKELREQNNITQNKLANDLFIKQQTVAQWENGSRALKADSIISLAKYFNVSTDYLLGLTEN	-0.634
HMTKIAFPQMLNKYRLQKNLTMEQLAEEVGKTKSTISKWEAGTRSPKIYEIEEIAKYFGVEPQTMMF	-0.548
HMAPNVEENSKLIGEIGMTLTPLRPSGIATINNRRVDVVSNGDFIDQDERVMVKRVQGARVVVIPV	0.1
HMATSLTEQEKLIFGLLKKQSPIELSSLKEQAGLSNKKWDKAIKGLSTQQLAKVTKTENGLFVHLLQ	0.12
HMPEEGPSEDGNSFTAKFKLGSDVQGAMEQADAAAKAGLQDAGKGTGQITSRAQVGGYIYSTATA	0.22
HMENDGQFLRAEREKYGLTLTDIYEHTHIPIKKLKAYEMWEEEMPPRTRALLELYFDQVAFEYDS	-0.556
HMDAMGAVGIARAFISAGERGGDISDGLEHMHGKLLRLSSLMYTRSGKKMAARRHELLSSFVQALEEEIK	-0.0591
